Here are results for 2 molecules from US8624002B2, “Prostaglandin E2 binding proteins and uses thereof” (AbbVie, Inc., priority 2008, dated 2014).

Series [1] can be described thus: PGE2 competition ELISA, format not stated (biotin-PGE2 or ^3H-PGE2). The note with it: humanized antibodies table. It is filed as binding. As to the method: Competition enzyme linked immunosorbent assays were performed to determine prostaglandin binding specificity for antibodies that bind prostaglandin E2, according to at least one of the two following methods.
ELISA plates (Costar 3369, Corning, N.Y.) were coated with 50 μl/well of anti-host Fc IgG (Sigma, St. Louis, Mo.) at 2 μg/ml in PBS (Invitrogen, Carlsbad, Calif.). Following an overnight incubation at 4° C., the plate was blocked with 200 μl Superblock (Pierce #37535, Rockford, Ill.). The IgG samples were diluted to 6 μg/ml in Assay Buffer (10% Superblock in PBS containing 0.05% Surfactamps (Pierce #37535, Rockford, Ill.). The PGE2-biotinamide was diluted to 3 nM in Assay Buffer. A titration curve in Assay Buffer was prepared for the prostaglandins PGA2 (Cayman Chemicals, Ann Arbor, Mich.), PGD2 (Cayman Chemicals, Ann Arbor, Mich.) and PGE2 (Cayman Chemicals, Ann Arbor, Mich.) starting at 300 nM by a 1:10 serial dilution. The reagents were added to tubes at a volume of 50 μl each/tube and preincubated for 1 hour at room temperature. Following the preincubation, the mix was transferred to the blocked plates and allowed to incubate for 1 hour at room temperature. Next, the plates were washed four times with Tween 20-Tris buffered solution (TTBS). Streptavidin polyhrp40 in Assay Buffer (Fitzgerald Industries, Concord, Mass.) at a 1:5000 dilution was then added to the wells and incubated for 45 minutes at room temperature. A final wash step was performed and the plates were developed using a single step TMB system (Sigma #T8665, Sigma, St. Louis, Mo.) and 100 μl/well 2N H2SO4. Plates were read at 450 nm on a Molecular Devices Spectramax plate reader (Sunnyvale, Calif.). […] IC50 number was determined using GraphPad Prism 5 (GraphPad Software, La Jolla, Calif.). The cross reactivity index was then calculated by IC50 of PGE2/IC50 of other prostaglandin(s).
Alternatively, prostaglandin selectivity was determined using a ^3H-PGE2 competition ELISA. Plates were coated with 50 μL/well of 5 μg/ml of goat anti-human IgG (Fc) (Thermo Scientific # 31170, Hudson, N.H.) or goat anti-mouse IgG (Fc) (Thermo Scientific # 31125, Hudson, N.H.) in PBS and incubated overnight at 4° C. The following day plates were flicked and blotted dry. Plates were blocked with 200 μL/well of Superblock (Thermo Scientific # 37515, Hudson, N.H.), 1 hour at room temperature. Plates were flicked and blotted dry. Monoclonal antibodies were diluted to 0.04 μg/ml in PBST (Abbott Bioresearch Center, Worcester, Mass.)/10% Superblock and 50 μL of each was added to each well (2 ng/well) of the pre-blocked ELISA plate and incubated for 1 hour at room temperature. Wells were washed 3 times with PBS/0.1% Tween-20. ^3H-PGE2 (Perkin Elmer # NET-428, Waltham, Mass.) was diluted in PBST/10% Superblock to 6 nM (2× stock). Each prostaglandin (Cayman Chemicals, Ann Arbor, Mich.) was prepared in PBST+10% Superblock at various concentrations ranging from 2000 μM (2× stock) to 0.00004 μM (2×). Equal volumes of the ^3H-PGE2 solution and of each prostaglandin dilution were mixed. Fifty microliters of this mixture was then added to each well of the plate and incubated for 1 hour at room temperature. Wells were washed manually 6 times with PBST/10% Superblock and 50 μL of scintillation fluid (Perkin Elmer # 6013621, Waltham, Mass.) added to each well. Plates were read using a TopCount reader (Perkin Elmer, Waltham, Mass.) with a 5 minute count delay. IC50 number was determined using GraphPad Prism 5 (GraphPad Software, La Jolla, Calif.). The cross reactivity index was then calculated by IC50 of PGE2/IC50 of other prostaglandin(s)
Several antibodies, named 19C9, 4F10 and 15F10 specific for PGE2 were isolated. […] The specificity of these antibodies for PGE2 was further determined by a competition ELISA with various prostaglandins as described in Example 1.B (Table 2). […]
(ELISA stands for enzyme-linked immunosorbent assay.)

Series [2] is described as follows: Accelerated stability screening monitored by SEC. It is filed as physicochemical. Particulars: SEC. As to the method: Size exclusion chromatography was used to separate proteins based on size. Proteins are carried in an aqueous mobile phase and through a porous stationary phase resin packed in a column. The retention time in the column is a function of the hydrodynamic size of the protein and the size of the pores in the packed resin bed. Smaller molecules can penetrate into smaller pores in the resin and are retained longer than larger molecules. Upon elution from the column the proteins are detected by UV absorbance. The SEC method used a TSK gel guard (TOSOH Biosciences, Montgomeryville, Pa., cat. no. 08543) and a TSK gel G3000SWxL (TOSOH Biosciences, Montgomeryville, Pa., cat. no. 08541). The mobile phase was 100 mM Na2HPO4, 200 mM Na2SO4, pH 7.0. The flow rate was 0.3 mL/minute. Injection volume was 20 μL of 1 mg/mL sample. The column temperature was room temperature. The autosampler temperature was 2-8° C. The total run time was 50 minutes. The detection was based on UV absorbance at 214 nm wavelength, with band width set at 8 nm, using reference wavelength at 360 nm with band width 100 nm.
(§1) The stability of a series of clones (i.e., anti-PGE2 antibodies) of the parent anti-PGE2 antibody was assessed by using intrinsic thermodynamic clone stability determination using DSC (0.79 mg/mL clone concentration, formulated at pH 6 in a 10 mM citrate, 10 mM phosphate buffer) and by accelerated stability screening (0.79 mg/mL clone concentration, formulated at pH 6 in a 10 mM citrate, 10 mM phosphate buffer, for 7 days at 50° C.) where clone stability was monitored with SEC (Table 15).
Background: SEC sorts molecules by how far they enter the pores of the column.

Series [3] is described as follows: Intrinsic thermodynamic stability by DSC. It is filed as physicochemical. Particulars: for Tm1 (° C.): 0.79 mg/mL, pH 6, 10 mM citrate, 10 mM phosphate; for Tm2 (° C.) / Tm3 (° C.): same buffer. The protocol: The thermal stability of the anti-PGE2 antibodies was assessed using a DSC instrument. The DSC instrument used was an automated VP-DSC equipment with Capillary Cell (Microcal, GE Healthcare Ltd./Microcal, Buckinghamshire, UK). Unfolding of molecules was studied applying a 1° C./minute scan rate over a 25° C.-95° C. temperature range for samples at 1 mg/mL. Additional measurement parameters applied were a fitting period of 16 seconds, a pre-scan wait time of 10 minutes, and measurements were performed in none-feedback mode. Per individual measurement, 420 μL of sample/blank were filled into the DSC measurement sample holder, with a plate fill scheme as provided below. The thermograms obtained were fitted to a non two state model to obtain the midpoint temperatures and enthalpies of the different transitions.
as §1
For orientation: In DSC, transitions show as peaks or steps in heat flow.

Series [4] in a line: Biotin-PGE2 ELISA (PGE2-biotinamide binding to captured IgG).
Setting [5] is: start of stability study, 0.79 mg/mL, pH 6.

B1: Hu2B5.2: humanized 2B5-8.0; VH SEQ ID NO 62, VL SEQ ID NO 63 (antibody, V domains shown)
VH: EVQLVQSGAEVKKPGASVKVSCKASGYTFTKYWLGWVRQAPGQGLEWIGDIYPGYDYTHYNEKFKDRATLTVDTSTSTAYMELSSLRSDDTAVYYCARSDGSSTYWGQGTLVTVSS
VL: DVVMTQTPLSLPVTPGEPASISCTSSQNIVHSNGNTYLEWYLQKPGQSPQLLIYKVSNRFSGVPDRFSGSGSGTDFTLKISRVEAEDVGVYYCFQVSHVPYTFGGGTKVEIKR
In the case of B1, in series [1], the “Cross Reactivity Index (%) PGA2” value came to 0.18%, the “Cross Reactivity Index (%) PGD2” value was less than 0.01% and the “Cross Reactivity Index (%) PGE1” value stood at 14%. Further, in series [2] (7 days storage at 50° C.), the “Aggregate (%)” value was 2.1753%, the “Fragment (%)” value is reported as 4.6755% and the “Monomer (%)” value is 93.1491%. For the same molecule, in series [2] (start of stability study), the “Fragment (%)” value is 3.3025% and the “Monomer (%)” value is 94.8516%. Moreover, the “Aggregate (%)” value in series [2] (setting [5]) came out at 1.846%. For the same molecule, in series [3], the “Tm1 (° C.)” value was found to be 72.845 °C, the “Tm2 (° C.)” value turned out to be 75.08 °C and the “Tm3 (° C.)” value was determined as 82.67 °C. Further, in series [4], the midpoint of the response, the EC50, lay at 55 pM.

B2: Hu2B5.6: humanized 2B5-8.0; VH SEQ ID NO 70, VL SEQ ID NO 71 (antibody, V domains shown)
VH: EVQLVQSGAEVKKPGASVKVSCKASGYTFTKYWLGWVRQAPGQGLEWMGDIYPGYDYTHYNEKFKDRVTLTTDTSTSTAYMELSSLRSDDTAVYYCARSDGSSTYWGQGTLVTVSS
VL: DVVMTQTPLSLPVTPGEPASISCTSSQNIVHSNGNTYLEWYLQKPGQSPQLLIYKVSNRFSGVPDRFSGSGSGTDFTLKISRVEAEDVGVYYCFQVSHVPYTFGGGTKVEIKR
For B2, in series [1], the “Cross Reactivity Index (%) PGA2” value turned out to be 0.15%, the “Cross Reactivity Index (%) PGD2” value is on record as less than 0.01% and the “Cross Reactivity Index (%) PGE1” value is on record as 11%. For the same molecule, in series [2] (7 days storage at 50° C.), the “Aggregate (%)” value came to 2.1577%, the “Fragment (%)” value is 4.0253% and the “Monomer (%)” value is recorded as 93.817%. In addition, in series [2] (start of stability study), the “Fragment (%)” value worked out at 2.7275% and the “Monomer (%)” value was determined as 95.446%. Besides, the “Aggregate (%)” value in series [2] (setting [5]) stood at 1.8265%. In series [3], the “Tm1 (° C.)” value was found to be 73.035 °C, the “Tm2 (° C.)” value stood at 75.585 °C and the “Tm3 (° C.)” value amounted to 82.95 °C. Moreover, in series [4], a half-maximal response (EC50) required 89 pM.

The EC50 is the concentration at which the effect is half-maximal. Read a high EC50 as a less potent agent.
